The text below walks through data of doi:10.1101/293738 (bioRxiv, 2018).

In general, Kd refers to the constant that tells how readily two partners part at equilibrium. Read a low Kd as a tighter complex.

The test concerns the target T1, LonS674A labelled with Atto-488 (LonS674A*) (Caulobacter crescentus, UniProt P0CAW0 1-799, S674A, Atto-488 on lysine residues (NHS ester)).
T1 sequence (looked up): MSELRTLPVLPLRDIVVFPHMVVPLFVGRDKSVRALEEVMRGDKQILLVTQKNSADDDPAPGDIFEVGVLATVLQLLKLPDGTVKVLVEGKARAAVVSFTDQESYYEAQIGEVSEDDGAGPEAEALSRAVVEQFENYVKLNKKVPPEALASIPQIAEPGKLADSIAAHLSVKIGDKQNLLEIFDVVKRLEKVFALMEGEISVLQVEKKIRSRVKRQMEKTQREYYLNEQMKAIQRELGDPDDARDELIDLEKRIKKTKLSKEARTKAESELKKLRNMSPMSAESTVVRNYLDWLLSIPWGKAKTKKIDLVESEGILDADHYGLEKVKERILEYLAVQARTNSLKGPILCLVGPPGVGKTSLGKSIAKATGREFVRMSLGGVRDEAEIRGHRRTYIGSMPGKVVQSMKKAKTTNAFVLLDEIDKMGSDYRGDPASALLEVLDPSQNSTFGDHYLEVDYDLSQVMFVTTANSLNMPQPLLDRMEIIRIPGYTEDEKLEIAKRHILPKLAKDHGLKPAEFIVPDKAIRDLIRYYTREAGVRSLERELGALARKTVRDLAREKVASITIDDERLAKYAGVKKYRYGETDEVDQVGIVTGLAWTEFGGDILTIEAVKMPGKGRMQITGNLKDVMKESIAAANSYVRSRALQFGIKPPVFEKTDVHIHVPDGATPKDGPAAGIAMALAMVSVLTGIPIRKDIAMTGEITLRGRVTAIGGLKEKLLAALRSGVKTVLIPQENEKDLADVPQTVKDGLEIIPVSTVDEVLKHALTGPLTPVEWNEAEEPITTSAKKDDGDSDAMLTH
The test can be described thus: MST.

B1: CcrM DNA methyltransferase (purified recombinant) (enzyme, Caulobacter crescentus, UniProt P0CAW2 1-358, looked up)
chain: MKFGPETIIHGDCIEQMNALPEKSVDLIFADPPYNLQLGGDLLRPDNSKVDAVDDHWDQFESFAAYDKFTREWLKAARRVLKDDGAIWVIGSYHNIFRVGVAVQDLGFWILNDIVWRKSNPMPNFKGTRFANAHETLIWASKSQNAKRYTFNYDALKMANDEVQMRSDWTIPLCTGEERIKGADGQKAHPTQKPEALLYRVILSTTKPGDVILDPFFGVGTTGAAAKRLGRKFIGIEREAEYLEHAKARIAKVVPIAPEDLDVMGSKRAEPRVPFGTIVEAGLLSPGDTLYCSKGTHVAKVRPDGSITVGDLSGSIHKIGALVQSAPACNGWTYWHFKTDAGLAPIDVLRAQVRAGMN
As to B1, the affinity, expressed as Kd, was 1180 ± 85 nM.
